Experimental data: PMC4459817, “Vasculotide reduces endothelial permeability and tumor cell extravasation in the absence of binding to or agonistic activation of Tie2” (EMBO Molecular Medicine, 2015)

T1: mouse Tie2-Fc (Fc-conjugated extracellular domain of Tie2) (mouse, UniProt Q02858 23-746)
T1 chain: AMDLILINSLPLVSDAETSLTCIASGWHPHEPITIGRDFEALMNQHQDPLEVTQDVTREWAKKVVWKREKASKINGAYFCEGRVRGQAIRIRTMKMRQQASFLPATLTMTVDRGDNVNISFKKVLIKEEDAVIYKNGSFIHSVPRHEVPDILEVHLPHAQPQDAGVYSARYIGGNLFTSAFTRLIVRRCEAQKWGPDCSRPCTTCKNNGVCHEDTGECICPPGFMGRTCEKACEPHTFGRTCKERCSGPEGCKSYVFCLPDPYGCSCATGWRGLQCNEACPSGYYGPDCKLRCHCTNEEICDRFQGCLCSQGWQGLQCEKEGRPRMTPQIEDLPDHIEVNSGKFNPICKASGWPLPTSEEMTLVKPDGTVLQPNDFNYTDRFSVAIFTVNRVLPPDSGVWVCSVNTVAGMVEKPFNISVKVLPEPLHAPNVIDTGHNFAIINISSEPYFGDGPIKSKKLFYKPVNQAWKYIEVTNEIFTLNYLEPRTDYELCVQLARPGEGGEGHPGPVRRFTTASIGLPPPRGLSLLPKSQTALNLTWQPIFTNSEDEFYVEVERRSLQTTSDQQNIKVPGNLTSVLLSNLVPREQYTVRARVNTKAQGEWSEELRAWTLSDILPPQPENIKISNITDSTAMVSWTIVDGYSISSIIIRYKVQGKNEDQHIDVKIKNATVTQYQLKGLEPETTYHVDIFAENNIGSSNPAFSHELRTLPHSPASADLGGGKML

T2: human Tie2-Fc (Fc-conjugated extracellular domain of Tie2) (human, UniProt Q02763 23-748)
T2 chain: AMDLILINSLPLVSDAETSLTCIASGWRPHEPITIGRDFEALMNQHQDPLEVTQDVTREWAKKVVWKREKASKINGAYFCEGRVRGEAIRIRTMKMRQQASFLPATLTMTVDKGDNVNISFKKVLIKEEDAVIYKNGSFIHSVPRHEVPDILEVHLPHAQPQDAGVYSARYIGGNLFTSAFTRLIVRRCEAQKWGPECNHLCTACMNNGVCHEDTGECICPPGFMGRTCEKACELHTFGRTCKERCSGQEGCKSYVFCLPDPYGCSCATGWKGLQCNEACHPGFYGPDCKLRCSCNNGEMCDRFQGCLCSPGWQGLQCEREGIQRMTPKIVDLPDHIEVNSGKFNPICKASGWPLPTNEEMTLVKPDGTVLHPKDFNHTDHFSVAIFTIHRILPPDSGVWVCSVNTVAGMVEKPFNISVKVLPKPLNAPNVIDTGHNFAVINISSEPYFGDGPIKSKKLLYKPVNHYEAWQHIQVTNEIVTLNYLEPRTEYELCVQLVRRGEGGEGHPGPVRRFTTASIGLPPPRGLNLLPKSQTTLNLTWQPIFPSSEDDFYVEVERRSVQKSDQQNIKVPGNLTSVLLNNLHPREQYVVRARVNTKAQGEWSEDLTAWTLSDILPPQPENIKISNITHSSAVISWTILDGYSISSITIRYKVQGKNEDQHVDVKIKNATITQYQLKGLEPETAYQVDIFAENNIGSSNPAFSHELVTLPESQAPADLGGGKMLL


Columns and labels:
endothelial cells = details: cells stimulated with sepsis-related mediators incl. thrombin; ref David et al, 2011; cited from earlier work
Text: Thrombin is also a metastasis-associated factor that can promote endothelial adhesion and diapedesis of TCs (Nierodzik & Karpatkin, [2006]).

[1] = target: T1, mouse Tie2-Fc (Fc-conjugated …); test: SPR
[2] = target: T1, mouse Tie2-Fc (Fc-conjugated …); test: SPR
[3] = target: T2, human Tie2-Fc (Fc-conjugated …); test: SPR

Kd [1] [nM]	koff [2] [s⁻¹]	Kd [3] [nM]	Molecule	endothelial barrier integrity (endothelial cells)
			CHHHRHSF [Vasculotide, 4-armed maleimide-functionalized polyethylene glycol (PEG) backbone to link together four cysteine-capped T7 peptides, that is, CHHHRHSF]	preserve endothelial barrier integrity
0.237	0.00033	0.205	recombinant human Ang1 (rhAng1) (ligand, UniProt Q15389 16-498, looked up, angiopoietin-1, human, recombinant; also called angiopoietin-1; source: bought: R&D Systems (named for the Boyden chamber experiments)) HIGCSNQRRSPENSGRRYNRIQHGQCAYTFILPEHDGNCRESTTDQYNTNALQRDAPHVEPDFSSQKLQHLEHVMENYTQWLQKLENYIVENMKSEMAQIQQNAVQNHTATMLEIGTSLLSQTAEQTRKLTDVETQVLNQTSRLEIQLLENSLSTYKLEKQLLQQTNEILKIHEKNSLLEHKILEMEGKHKEELDTLKEEKENLQGLVTRQTYIIQELEKQLNRATTNNSVLQKQQLELMDTVHNLVNLCTKEGVLLKGGKREEEKPFRDCADVYQAGFNKSGIYTIYINNMPEPKKVFCNMDVNGGGWTVIQHREDGSLDFQRGWKEYKMGFGNPSGEYWLGNEFIFAITSQRQYMLRIELMDWEGNRAYSQYDRFHIGNEKQNYRLYLKGHTGTAGKQSSLILHGADFSTKDADNDNCMCKCALMLTGGWWFDACGPSNLNGMFYTAGQNHGKLNGIKWHYFKGPSYSLRSTTMMIRPLDF	
